Measurements reported in publication PMC3509593, “Role of Key Residues at the Flavin Mononucleotide (FMN):Adenylyltransferase Catalytic Site of the Bifunctional Riboflavin Kinase/Flavin Adenine Dinucleotide (FAD) Synthetase from Corynebacterium ammoniagenes” (International Journal of Molecular Sciences, 2012).

Target: the molecule itself
Test: SEC; gel filtration of the purified samples on a HiPrep 26/60 Sephacryl S-200 HR column, used to separate the monomeric fraction

B1: FAD synthetase from Corynebacterium ammoniagenes (wild type) (enzyme)
chain: MDIWYGTAAVPKDLDNSAVTIGVFDGVHRGHQKLINATVEKAREVGAKAIMVTFDPHPVSVFLPRRAPLGITTLAERFALAESFGIDGVLVIDFTRELSGTSPEKYVEFLLEDTLHASHVVVGANFTFGENAAGTADSLRQICQSRLTVDVIDLLDDEGVRISSTTVREFLSEGDVARANWALGRHFYVTGPVVRGAGRGGKELGFPTANQYFHDTVALPADGVYAGWLTILPTEAPVSGNMEPEVAYAAAISVGTNPTFGDEQRSVESFVLDRDADLYGHDVKVEFVDHVRAMEKFDSVEQLLEVMAKDVQKTRTLLAQDVQAHKMAPETYFLQAES
notes: FAD synthetase (bifunctional RFK/FMNAT) of Corynebacterium ammoniagenes; N-terminal FMNAT-module residues 1-186 and C-terminal RFK-module residues 187-338; also called CaFADS; WT CaFADS; source: gel filtration on Sephacryl S-200 HR
B1: binds.
